Results on one substance are retold here after article PMC4271737.

In assay [1] the target is human angiotensin II type 1 receptor with a C-terminal GFP-H10 tag (AT1R-GFP-H10) (human) (UniProt P30556). Nature of the assay: radioligand binding; non-solubilised membranes (briefly sonicated cells); 0.5 nM [125I]Sar1 with 100 nM unlabelled Sar1; bound and free ligand separated by filtration through 96-well glass fibre filter plates without polyethyleneimine; background from parental or uninfected cells.

The target in assay [2] is human angiotensin II type 1 receptor with a C-terminal decahistidine tag (AT1R-H10) (human) (UniProt P30556). The description is as above.

On to “[^125I]sar^1-Ile^8-angiotensin II (peptide)”, for which the specific binding in membranes (dpm, set to 100%) is 12000 dpm in assay [1] and 1400 dpm in assay [2].
